We go through 2 molecules from US20190008947A1.

In experiment [1] the target is HLA-A*02:01 (human), P04439.
The target in a further experiment is A*03:01, P04439. The note with it: modification not given.
A further experiment concerns the target A*11:01, P04439. Conditions: modification not given.

For TALTGATEI (modifications not checked) [… (SEQ ID NO: 344)], the REVEAL Score in experiment [1] was found to be 0.9.

One may read the IC50 as the concentration that gives 50% inhibition. Read a low IC50 as inhibition by little substance. For ALKLSWFKK […, serotype 1], the IC50 stood at 42 nM with A*03:01, P04439 and 59 nM with A*11:01, P04439.
